Drawing on article PMC10600457, this text covers Kd for four molecules.

The term Kd denotes the free concentration of one partner at which half of the binding sites on the other are occupied at equilibrium, for simple one-to-one binding. Higher therefore signals weaker binding.

Sequences and labels used below:
B1: Palivizumab (antibody, V domains shown)
VH: QVTLRESGPALVKPTQTLTLTCTFSGFSLSTSGMSVGWIRQPPGKALEWLADIWWDDKKDYNPSLKSRLTISKDTSKNQVVLKVTNMDPADTATYYCARSMITNWYFDVWGAGTTVTVSS
VL: DIQMTQSPSTLSASVGDRVTITCKCQLSVGYMHWYQQKPGKAPKLLIYDTSKLASGVPSRFSGSGSGTEFTLTISSLQPDDFATYYCFQGSGYPFTFGGGTKLEIK
B2: Nirsevimab (antibody, V domains shown)
VH: QVQLVQSGAEVKKPGSSVMVSCQASGGLLEDYIINWVRQAPGQGPEWMGGIIPVLGTVHYGPKFQGRVTITADESTDTAYMELSSLRSEDTAMYYCATETALVVSETYLPHYFDNWGQGTLVTVSS
VL: DIQMTQSPSSLSAAVGDRVTITCQASQDIVNYLNWYQQKPGKAPKLLIYVASNLETGVPSRFSGSGSGTDFSLTISSLQPEDVATYYCQQYDNLPLTFGGGTKVEIK
B3: MEDI8897*-TM (antibody, V domains shown)
VH: B2 VH
VL: B2 VL
B4: MEDI8897* (antibody, V domains shown)
VH: B2 VH
VL: B2 VL

The first assay has as its target FcγRIIA (UniProt P12318). The assay is described as follows: SPR. Background: SPR reads the build-up and loss of mass on a sensor chip optically.
In turn, B1 came in with an equilibrium dissociation constant (Kd) of 2780 nM.

B2: the Kd is 9300 nM.

With B3, the Kd turned out to be 34400 nM.

Molecule B4 returned a Kd of 3720 nM.

The target of another assay is FcγRIIIA-158V. Nature of the assay: SPR.
In the case of B1, the dissociation constant (Kd) came to 882 nM.

The molecule B2 displayed a Kd of 2110 nM.

In turn, B3 came in with a Kd of 5150 nM.

Regarding B4, the Kd was 1150 nM.

The target in a further assay is FcγRIIB (UniProt P31994). Nature of the assay: SPR.
Chain of UniProt P31994 (P31994 43-310): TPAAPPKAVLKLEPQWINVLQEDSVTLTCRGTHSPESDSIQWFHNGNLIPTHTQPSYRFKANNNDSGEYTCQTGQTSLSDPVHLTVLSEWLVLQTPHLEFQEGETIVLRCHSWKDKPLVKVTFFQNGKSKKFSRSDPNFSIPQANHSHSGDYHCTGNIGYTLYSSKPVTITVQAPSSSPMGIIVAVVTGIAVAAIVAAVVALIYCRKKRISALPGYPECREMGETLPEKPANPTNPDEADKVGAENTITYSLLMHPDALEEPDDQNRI
For the molecule B1, the dissociation constant Kd turned out to be 12500 nM.

The molecule B4 came in with a Kd of 13500 nM.

The target of the next assay is FcγRI (UniProt P12314). Nature of the assay: SPR.
Chain of UniProt P12314 (P12314 16-374): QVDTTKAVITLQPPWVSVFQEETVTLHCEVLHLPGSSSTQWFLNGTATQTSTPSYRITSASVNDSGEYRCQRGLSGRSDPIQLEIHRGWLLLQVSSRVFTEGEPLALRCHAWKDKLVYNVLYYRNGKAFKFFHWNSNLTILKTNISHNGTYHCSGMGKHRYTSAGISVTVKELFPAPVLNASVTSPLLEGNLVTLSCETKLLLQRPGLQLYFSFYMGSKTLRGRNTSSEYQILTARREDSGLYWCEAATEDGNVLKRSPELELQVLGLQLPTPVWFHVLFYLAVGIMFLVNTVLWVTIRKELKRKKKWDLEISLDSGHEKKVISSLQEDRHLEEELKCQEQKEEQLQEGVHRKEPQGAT
B1 displayed a Kd of 1.01 nM.

The molecule B2 showed an equilibrium dissociation constant (Kd) of 10.3 nM.

For the molecule B3, the dissociation constant (Kd) was found to be 240 nM.

Regarding B4, the Kd worked out at 1.24 nM.
